Measured values as given in PMC4643876, “Picomolar Inhibition of Plasmepsin V, an Essential Malaria Protease, Achieved Exploiting the Prime Region” (PLoS ONE, 2015).

Tests used:
[1] = molecular target: GFP-tagged Plasmepsin V (PmV-GFP), P. falciparum clone DC6 (Plasmodium falciparum); test: enzyme inhibition (fluorogenic substrate cleavage), Ki calculated from IC50; bead-bound PmV-GFP at <=10 pM, 3 uM DABCYL-[…]-EDANS substrate, serial dilution of inhibitor 10 uM to 0.1 pM, 37 C, 50 mM Tris-Maleate pH 6.5, 50 mM NaCl, 0.05% TX-100, 2 mM DTT; Ki from IC50 = Ki (1 + [S]/KM)
GFP-tagged Plasmepsin V (PmV-GFP), P. falciparum clone DC6 (Plasmodium falciparum), sequence (Q8I6Z5 whole entry): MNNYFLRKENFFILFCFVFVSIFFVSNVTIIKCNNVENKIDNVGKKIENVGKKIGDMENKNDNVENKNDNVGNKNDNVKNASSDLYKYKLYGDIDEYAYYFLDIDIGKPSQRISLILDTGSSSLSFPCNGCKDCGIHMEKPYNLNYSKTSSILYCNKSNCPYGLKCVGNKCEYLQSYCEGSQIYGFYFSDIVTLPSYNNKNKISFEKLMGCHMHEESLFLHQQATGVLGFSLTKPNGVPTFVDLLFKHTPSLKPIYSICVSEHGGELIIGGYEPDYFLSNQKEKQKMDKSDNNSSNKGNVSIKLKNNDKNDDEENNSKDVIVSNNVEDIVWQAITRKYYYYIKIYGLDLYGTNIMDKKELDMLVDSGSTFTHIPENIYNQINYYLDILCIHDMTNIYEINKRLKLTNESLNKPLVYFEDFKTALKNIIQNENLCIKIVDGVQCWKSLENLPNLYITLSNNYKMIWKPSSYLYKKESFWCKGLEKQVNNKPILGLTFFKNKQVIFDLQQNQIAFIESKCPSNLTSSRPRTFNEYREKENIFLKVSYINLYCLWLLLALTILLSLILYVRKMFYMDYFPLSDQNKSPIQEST

[2] = molecular target: GFP-tagged Plasmepsin V (PmV-GFP), P. falciparum clone DC6 (Plasmodium falciparum)

Compound 1 (LG20), RL[L~A]EA (peptide)
Ki [1]: 197 pM | IC50 of inhibition of PmV cleavage of the fluorogenic HRPII-PExEl substrate (enzyme pre-mixed with inhibitor) [2]: 367 pM | IC50 of inhibition of PmV cleavage of the fluorogenic HRPII-PExEl substrate (inhibitor added after the reaction was initiated) [2]: 329 pM
